Measurements published in US20200317768A1 (published 2020).

T1: cynomolgus monkey FcγRIIa3 extracellular domain with C-terminal His-tag (cynomolgus monkey)
T1 construct: also called cyno FcgRIIa3; cynoFcγRIIa3
T1 chain: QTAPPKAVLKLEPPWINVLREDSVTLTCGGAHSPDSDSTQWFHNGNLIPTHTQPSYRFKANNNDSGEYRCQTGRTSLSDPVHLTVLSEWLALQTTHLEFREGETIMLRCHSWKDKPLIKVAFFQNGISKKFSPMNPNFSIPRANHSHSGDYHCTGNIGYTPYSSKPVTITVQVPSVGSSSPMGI

T2: human FcγRIIb extracellular domain with C-terminal His-tag (human, UniProt P31994 43-217)
T2 construct: also called human FcgRIIb
T2 sequence: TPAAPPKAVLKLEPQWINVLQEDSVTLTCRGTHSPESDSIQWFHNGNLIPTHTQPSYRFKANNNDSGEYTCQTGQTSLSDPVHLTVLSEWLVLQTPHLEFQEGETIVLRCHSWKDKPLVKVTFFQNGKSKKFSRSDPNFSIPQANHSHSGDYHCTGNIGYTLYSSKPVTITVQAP

T3: human FcγRIIaR extracellular domain with C-terminal His-tag (human, UniProt P12318 34-217)
T3 construct: also called human FcgRIIaR; FcγRIIa (type R)
T3 chain: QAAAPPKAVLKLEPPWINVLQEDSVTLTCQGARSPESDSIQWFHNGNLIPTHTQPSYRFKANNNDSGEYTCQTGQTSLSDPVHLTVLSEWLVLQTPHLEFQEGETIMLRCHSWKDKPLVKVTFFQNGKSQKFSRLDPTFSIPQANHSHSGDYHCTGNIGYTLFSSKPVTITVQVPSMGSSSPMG

T4: cynomolgus monkey FcγRIIIaS extracellular domain with C-terminal His-tag (cynomolgus monkey, UniProt Q8SPW2 21-206 at identity 1.00))
T4 construct: also called cyno FcgRIIIaS; cynoFcγRIIIaS
T4 chain: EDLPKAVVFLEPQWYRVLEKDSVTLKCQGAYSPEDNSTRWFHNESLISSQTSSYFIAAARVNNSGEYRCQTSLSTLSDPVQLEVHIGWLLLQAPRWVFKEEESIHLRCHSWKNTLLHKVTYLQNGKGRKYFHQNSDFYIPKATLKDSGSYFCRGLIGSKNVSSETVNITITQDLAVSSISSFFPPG

T5: human FcγRIIaH extracellular domain with C-terminal His-tag (human, UniProt P12318 34-217)
T5 construct: also called human FcgRIIaH; FcγRIIa (type H)
T5 sequence: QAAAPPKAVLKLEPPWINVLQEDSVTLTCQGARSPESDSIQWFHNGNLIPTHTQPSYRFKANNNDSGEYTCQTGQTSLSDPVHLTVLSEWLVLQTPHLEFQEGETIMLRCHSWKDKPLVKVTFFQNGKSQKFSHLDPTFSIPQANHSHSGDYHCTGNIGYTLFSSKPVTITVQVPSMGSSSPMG

T6: cynomolgus monkey FcγRIIb extracellular domain with C-terminal His-tag (cynomolgus monkey)
T6 construct: also called cyno FcgRIIb; cynoFcγRIIb
T6 chain: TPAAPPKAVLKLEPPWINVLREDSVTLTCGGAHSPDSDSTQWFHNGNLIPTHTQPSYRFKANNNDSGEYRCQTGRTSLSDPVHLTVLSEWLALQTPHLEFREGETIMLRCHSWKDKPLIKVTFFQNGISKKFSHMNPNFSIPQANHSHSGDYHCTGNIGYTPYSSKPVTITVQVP

T7: cynomolgus monkey FcγRIIa1 extracellular domain with C-terminal His-tag (cynomolgus monkey)
T7 construct: also called cyno FcgRIIa1; cynoFcγRIIa1
T7 chain: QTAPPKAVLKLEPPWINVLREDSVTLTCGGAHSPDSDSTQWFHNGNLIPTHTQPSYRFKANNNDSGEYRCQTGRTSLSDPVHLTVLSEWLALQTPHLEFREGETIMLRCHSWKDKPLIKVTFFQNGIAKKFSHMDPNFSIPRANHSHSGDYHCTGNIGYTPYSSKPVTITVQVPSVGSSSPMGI

T8: cynomolgus monkey FcγRIIa2 extracellular domain with C-terminal His-tag (cynomolgus monkey)
T8 construct: also called cyno FcgRIIa2; cynoFcγRIIa2
T8 chain: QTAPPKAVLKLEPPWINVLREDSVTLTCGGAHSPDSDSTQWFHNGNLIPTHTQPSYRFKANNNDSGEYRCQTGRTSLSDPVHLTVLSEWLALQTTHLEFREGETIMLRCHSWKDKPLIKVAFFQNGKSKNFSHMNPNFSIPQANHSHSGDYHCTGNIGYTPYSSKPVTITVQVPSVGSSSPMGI


What was measured:
Assay in all cases: SPR (BIACORE), antibody captured, FcgR analyte
[1] = biological target: T1, cynomolgus monkey FcγRIIa3 …
Protocol: (§1) The kinetic analysis of interactions between these antibodies and FcγR was carried out using BIACORE® T200 or BIACORE® 4000 (GE Healthcare). HBS-EP+ (GE Healthcare) was used as the running buffer, and the measurement temperature was set to 25° C. A chip produced by immobilizing Protein A. Protein A/G or mouse anti-human IgG kappa light chain (BD Biosciences) onto a Series S Sensor Chip CM4 or CM5 (GE Healthcare) by the amine-coupling method was used. […] After the measurement, the antibody captured on the chip was washed off by allowing reaction with 10 mM glycine-HCl, pH1.5 and 25 mM NaOH so that the chip was regenerated and used repeatedly. The sensorgrams obtained as measurement results were analyzed by the 1:1 Langmuir binding model using the BIACORE® Evaluation Software to calculate the binding rate constant ka (L/mol/s) and dissociation rate constant kd (l/s), and the dissociation constant KD (mol/L) was calculated from these values. […] Regarding such interactions, KD values were calculated using the following 1:1 binding model described in BIACORE® T100 Software Handbook BR1006-48 Edition AE.
(§2) The behavior of interacting molecules according to the 1:1 binding model on BIACORE® can be described by Equation 1: Req=C·R max/(KD+C)+RI, wherein, Req is a plot of steady-state binding levels to analyte concentration. C is concentration, RI is bulk refractive index contribution in the sample, and Rmax is analyte binding capacity of the surface. When this equation is rearranged, KD can be expressed as Equation 2: KD=C·Rmax/(Req−RI)−C. KD can be calculated by substituting the values of Rmax, RI, and C into Equation 1 or Equation 2. From the current measurement conditions, RI=0, C=2 μmol/L can be used.

[2] = biological target: T2, human FcγRIIb extracellular domain with …
Protocol: as §1, §2

[3] = biological target: T3, human FcγRIIaR extracellular domain …
Protocol: as §1, §2

[4] = biological target: T9, human FcγRIIIaV extracellular domain with C-terminal His-tag (human, UniProt P08637 17-208)
T9 construct: also called human FcgRIIIaV
T9 sequence (P08637 17-208 F176V): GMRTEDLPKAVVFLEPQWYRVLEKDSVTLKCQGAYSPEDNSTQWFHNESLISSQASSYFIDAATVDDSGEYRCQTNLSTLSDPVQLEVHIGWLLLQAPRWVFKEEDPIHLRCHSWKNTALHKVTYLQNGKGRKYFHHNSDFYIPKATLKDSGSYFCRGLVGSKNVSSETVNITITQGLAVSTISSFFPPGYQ
Protocol: as §1, §2

[5] = biological target: T4, cynomolgus monkey FcγRIIIaS …
Protocol: as §1, §2

[6] = biological target: T5, human FcγRIIaH extracellular domain …
Protocol: as §1, §2

[7] = biological target: T6, cynomolgus monkey FcγRIIb extracellular …
Protocol: as §1, §2

[8] = biological target: T7, cynomolgus monkey FcγRIIa1 …
Protocol: as §1, §2

[9] = biological target: T8, cynomolgus monkey FcγRIIa2 …
Protocol: as §1, §2

| Binder | Kd [1] [µM] | Kd [2] [µM] | Kd [3] [µM] | Kd [4] [µM] | Kd [5] [µM] | Kd [6] [µM] | Kd [7] [µM] | Kd [8] [µM] | Kd [9] [µM] |
| --- | --- | --- | --- | --- | --- | --- | --- | --- | --- |
| M103205H795-MY534/M103202L889-SK1 (antibody, human IgG1, kappa, Substitutions introduced into M103205H795-SG1, expressed with M103202L889-SK1 as light chain; EU numbering) heavy: QVTLKESGPVLVKPTETLTLTCTVSGIDLSHDDISWVRQAPGKGLEWVGIISYAGSTYYASWAKGRLTISKDTSKNQVVLTMTNMDPVDTATYYCARGVPAYSHGGDLWGQGTLVTVSSASTKGPSVFPLAPSSKSTSGGTAALGCLVKDYFPEPVTVSWNSGALTSGVHTFPAVLQSSGLYSLSSVVTVPSSSLGTQTYICNVNHKPSNTKVDKKVEPKSCDKTHTCPPCPAPELLTGPVVFLFPPKPKDTLMISRTPEVTCVVVDVSDEDPEVKFNWYVDGVEVHNAKTKPREELYNSTYRVVSVLTVLHQDWLNGKEYKCKVSNKALPKPIEKTISKAKGQPREPQVYTLPPSREEMTKNQVSLTCLVKGFYPSDIAVEWESNGQPENNYKTTPPVLDSDGSFFLYSKLTVDKSRWQQGNVFSCSVMHEALHNHYTQKSLSLSP light: DIVMTQSPATLSLSPGERATLSCTSSQSVYHANWLSWFQQKPGQPPKLLIYWASTLAYGVPSRFSGSGSGTDFTLTISSLQPEDAATYYCAGGYGGGRYAFGQGTKVEIKRTVAAPSVFIFPPSDEQLKSGTASVVCLLNNFYPREAKVQWKVDNALQSGNSQESVTEQDSKDSTYSLSSTLTLSKADYEKHKVYACEVTHQGLSSPVTKSFNRGEC | 1.2 | 0.12 | 0.19 | 4.3 | 1.7 | 0.17 | 0.42 | 1.3 | 1.3 |
| M103205H795-MY535/M103202L889-SK1 (antibody, human IgG1, kappa, Substitutions introduced into M103205H795-SG1, expressed with M103202L889-SK1 as light chain; EU numbering) heavy: QVTLKESGPVLVKPTETLTLTCTVSGIDLSHDDISWVRQAPGKGLEWVGIISYAGSTYYASWAKGRLTISKDTSKNQVVLTMTNMDPVDTATYYCARGVPAYSHGGDLWGQGTLVTVSSASTKGPSVFPLAPSSKSTSGGTAALGCLVKDYFPEPVTVSWNSGALTSGVHTFPAVLQSSGLYSLSSVVTVPSSSLGTQTYICNVNHKPSNTKVDKKVEPKSCDKTHTCPPCPGPEWLTGPSVFLFPPKPKDTLMISRTPEVTCVVVDVSDEDPEVKFNWYVDGVEVHNAKTKPREEQYNSTYRVVSVLTVLHQDWLNGKEYKCKVSNKALPKPIEKTISKAKGQPREPQVYTLPPSREEMTKNQVSLTCLVKGFYPSDIAVEWESNGQPENNYKTTPPVLDSDGSFFLYSKLTVDKSRWQQGNVFSCSVMHEALHNHYTQKSLSLSP light: DIVMTQSPATLSLSPGERATLSCTSSQSVYHANWLSWFQQKPGQPPKLLIYWASTLAYGVPSRFSGSGSGTDFTLTISSLQPEDAATYYCAGGYGGGRYAFGQGTKVEIKRTVAAPSVFIFPPSDEQLKSGTASVVCLLNNFYPREAKVQWKVDNALQSGNSQESVTEQDSKDSTYSLSSTLTLSKADYEKHKVYACEVTHQGLSSPVTKSFNRGEC | 3 | 1.9 | 0.64 | 3.2 | 2.1 | 0.39 | 0.41 | 1.3 | 1.4 |

Other lines, results leading:

| Kd [1] [µM] | Kd [2] [µM] | Kd [3] [µM] | Kd [4] [µM] | Kd [5] [µM] | Kd [6] [µM] | Kd [7] [µM] | Kd [8] [µM] | Kd [9] [µM] | Binder |
| --- | --- | --- | --- | --- | --- | --- | --- | --- | --- |
| 1.4 | 1 | 0.37 | 3.3 | 1.5 | 0.28 | 0.32 | 1.2 | 1.1 | M103205H795-MY537/M103202L889-SK1 (antibody, human IgG1, kappa, Substitutions introduced into M103205H795-SG1, expressed with M103202L889-SK1 as light chain; EU numbering) heavy: QVTLKESGPVLVKPTETLTLTCTVSGIDLSHDDISWVRQAPGKGLEWVGIISYAGSTYYASWAKGRLTISKDTSKNQVVLTMTNMDPVDTATYYCARGVPAYSHGGDLWGQGTLVTVSSASTKGPSVFPLAPSSKSTSGGTAALGCLVKDYFPEPVTVSWNSGALTSGVHTFPAVLQSSGLYSLSSVVTVPSSSLGTQTYICNVNHKPSNTKVDKKVEPKSCDKTHTCPPCPGPEWLTGPVVFLFPPKPKDTLMISRTPEVTCVVVDVSDEDPEVKFNWYVDGVEVHNAKTKPREELYNSTYRVVSVLTVLHQDWLNGKEYKCKVSNKALPKPIEKTISKAKGQPREPQVYTLPPSREEMTKNQVSLTCLVKGFYPSDIAVEWESNGQPENNYKTTPPVLDSDGSFFLYSKLTVDKSRWQQGNVFSCSVMHEALHNHYTQKSLSLSP light: DIVMTQSPATLSLSPGERATLSCTSSQSVYHANWLSWFQQKPGQPPKLLIYWASTLAYGVPSRFSGSGSGTDFTLTISSLQPEDAATYYCAGGYGGGRYAFGQGTKVEIKRTVAAPSVFIFPPSDEQLKSGTASVVCLLNNFYPREAKVQWKVDNALQSGNSQESVTEQDSKDSTYSLSSTLTLSKADYEKHKVYACEVTHQGLSSPVTKSFNRGEC |
| 0.98 | 0.99 | 0.22 | 3.7 | 1.6 | 0.29 | 0.4 | 1.3 | 1.1 | M103205H795-MY536/M103202L889-SK1 (antibody, human IgG1, kappa, Substitutions introduced into M103205H795-SG1, expressed with M103202L889-SK1 as light chain; EU numbering) heavy: QVTLKESGPVLVKPTETLTLTCTVSGIDLSHDDISWVRQAPGKGLEWVGIISYAGSTYYASWAKGRLTISKDTSKNQVVLTMTNMDPVDTATYYCARGVPAYSHGGDLWGQGTLVTVSSASTKGPSVFPLAPSSKSTSGGTAALGCLVKDYFPEPVTVSWNSGALTSGVHTFPAVLQSSGLYSLSSVVTVPSSSLGTQTYICNVNHKPSNTKVDKKVEPKSCDKTHTCPPCPGPEWLTGPVVFLFPPKPKDTLMISRTPEVTCVVVDVSDEDPEVKFNWYVDGVEVHNAKTKPREEQYNSTYRVVSVLTVLHQDWLNGKEYKCKVSNKALPKPIEKTISKAKGQPREPQVYTLPPSREEMTKNQVSLTCLVKGFYPSDIAVEWESNGQPENNYKTTPPVLDSDGSFFLYSKLTVDKSRWQQGNVFSCSVMHEALHNHYTQKSLSLSP light: DIVMTQSPATLSLSPGERATLSCTSSQSVYHANWLSWFQQKPGQPPKLLIYWASTLAYGVPSRFSGSGSGTDFTLTISSLQPEDAATYYCAGGYGGGRYAFGQGTKVEIKRTVAAPSVFIFPPSDEQLKSGTASVVCLLNNFYPREAKVQWKVDNALQSGNSQESVTEQDSKDSTYSLSSTLTLSKADYEKHKVYACEVTHQGLSSPVTKSFNRGEC |
